Measurements: patent publication US20150182631A1, “SYSTEM FOR […]-BASED ACTIVE INGREDIENTS” (Centre National De La Recherche Scientifique-CNRS, priority 2012, published 2015)

Experiments:
Type in all cases: physicochemical
[1] = Balanced FRET, exchange of monomers; conditions: 1 h incubation, pH 8.5
Method: Fluorescence energy transfer was used to reveal the exchange of the XCL monomers. The exchange reaction is initiated by mixing the same volume of XCL-RITC (1 μM or only the buffer as a reference) and of XCL-FITC (1 μM) at 25° C. in 50 mM of phosphate buffer, 100 mM NaCl, pH 8.5. After one hour of incubation, the emission spectrum of the sample excited at 490 nm is recorded by spectrofluorimetry (Photon Technology International QM-4). The same experiments were carried out with A38C-RITC and A38C-FITC.
The oligomerization balance of the XCL protein was characterised by the measurement of the appearance of resonance energy transfer of the Förster type (FRET) between two populations of XCL labelled separately either with FITC (Fluorescein IsoThioCyanate) or with RITC (Rhodamine IsoThioCyanate).
In this same figure, is also shown the spectrum obtained by mixing the labelled protein, either by the donor or by the acceptor (dotted line curve). This spectrum was deconvoluted, which gives the spectra shown as a dotted line in FIG. 2A.
For the purposes of comparison, the same experiment was carried out with the variant A38C. This variant is covalently bonded by two additional disulphide bridges. A perfectly superimposable spectrum was obtained after mixing donor and acceptor labelled proteins and incubation of this mixture for 1 h at ambient temperature (dotted lines of FIG. 3B).

[2] = Chemical dissociation by size exclusion chromatography at acidic pH
Method: The size exclusion chromatography experiments were carried out on a GE-Healthcare Superose 12 PC 3.2/30 column. The columns are pre-balanced in the buffer tested, namely phosphate buffer 50 mM, 100 mM NaCl, pH7.2 or pH 4.4 in the absence or in the presence of 0.003% of SDS. The flow rate is 0.5 mL/min. The BSA and the RNase A are used as a size marker.
The inventors studied the behaviour of XCL in denaturing chemical conditions close to those encountered in the lysosomes. The analysis was carried out via exclusion chromatography with an acidic pH (pH 4.4). It appears that the elution peak of XCL in these denaturing conditions is displaced to greater elution volumes showing the appearance of a smaller size. When 0.003% SDS is added, the elution peak is displaced to the elution volume of the RNAse A which has a molecular weight close to the XCL monomer.
The behaviour of the oxidised mutant A38C was also analysed. […] The addition of the disulphide bridge therefore increases the stability of the protein assembly.

[3] = FRET on dilution, tetramer equilibrium
Method: The mixture of FITC-XCL and RITC-XCL was diluted to various concentrations and incubated for 1 hour at ambient temperature. The fluorescence spectrum was recorded with a light excitation at 468 nm. In order to substantially determine the decrease in the energy transfer and normalise the intensity of the fluorescence, a ratio I580/I520 was calculated for each concentration and taken according to the concentration in XCL (FIG. 4). […] Evidently, the titration curve is not complete as long as the saturation is not reached for the points with the strongest concentration. Due to the solubility limit of XCL and of the labelling protocol, the concentrations in protein cannot exceed 10 μM in this experiment.

[4] = SDS-PAGE of tetramer and disulphide bridge stability; conditions: 2% of SDS, not heated before deposit
Method: The clone A38C was obtained by directed mutagenesis by using the XCL plasmid as a matrix and the protein produced and purified by using the same protocol as that used to produce XCL (Trigueros et al. (2003)). A yield of 25 mg of purified protein per litre of culture was obtained. The last part of the protocol consisted in a step of oxidation for 12 hours in the presence of 10 mM of oxidised glutathione. This step is required in order to produce disulphide bridges between the monomers. The forming of these covalent bonds was verified by SDS-PAGE. Two SDS-PAGE were prepared. Beta-mercaptoethanol was added to the samples in the first gel while beta-mercaptoethanol was not added to the second gel. When XCL is heated to 95° C. 5 min before the deposit, a single band is observed with a molecular weight slightly greater than 20 kDa on the two gels. This band corresponds to the species in monomer form.
A variant T12C was produced in the same manner as A38C by directed mutagenesis by using the XCL plasmid as a matrix. By using the same protocol, 10 mg of protein per litre of culture were produced. The oxidation rate of the variant T12C was sought by using the same method by SDS-PAGE as for A38C. These rates were compared with those obtained with the variant A38C. Several oxidative conditions were tested with different concentrations of reduced glutathione. […]

[5] = Thermal dissociation by NMR DOSY
Method: The thermal dissociation was also followed by DOSY experiments (Diffusion Ordered SpectrometrY). The ratio of the hydrodynamic radius of XCL and of the dioxane were measured according to the temperature (FIG. 9).
If the tetramer is dissociated by increasing the temperature, a decrease in this ratio is expected and therefore of the hydrodynamic radius of XCL. […] After 50° C., the protein sample precipitates out as already described in the fluorescence experiments with tryptophan.

[6] = Thermal dissociation by tryptophan fluorescence
Description: The thermal dissociation of XCL was followed by measuring the intrinsic fluorescence of the tryptophans. Each monomer of XCL contains 3 tryptophan residues: one in a hydrophobic cavity (Trp 77) and two located on the same interface between two monomers (Trp 27 and Trp 35). The inventors used these latter two Trp as probes for the quaternary structure of XCL, by taking advantage of their position in the structure of the tetramer. In order to increase the sensitivity of the measurement, the ratio of the fluorescence intensities 346 nm/330 nm was measured according to the temperature (FIG. 8).

B1: XCL: Xerocomus chrysenteron lectin, fungal sporocarp lectin forming a tetramer with central cavity, SEQ ID NO: 1 (protein)
chain: MSYSITLRVYQTNRDRGYFSIVEKTVWHFANGGTWSEANGAHTLTQGGSGTSGVLRFLSTKGERITVAVGVHNYKRWCDVVTGLKPDETALVINPQYYNNGGRDYVREKQLAEYSVTSAIGTKVEVVYTVAEGNNLEANVIFS
modifications: Xerocomus chrysenteron
FRET between FITC- and RITC-labelled protein after mixing (monomer redistribution) [1]: monomers have been redistributed
oligomeric state by elution volume at pH 4.4 with SDS ([2]; pH 4.4, 0.003% SDS): these dimers are dissociated into monomers
oligomeric state by elution volume at pH 4.4 ([2]; pH 4.4, no SDS): dissociation of the tetramer into a dimer
concentration of the transition in energy transfer intensity (I580/I520) ([3]; 1 hour at ambient temperature): close to the micromolar
maximum protein concentration (solubility limit and labelling protocol) ([3]; labelled XCL in FRET experiment): ≤ 10 µM
oligomeric form on SDS-PAGE [4]: remained in tetrameric form
temperature after which the protein sample precipitates out ([5]; DOSY): > 50 °C
hydrodynamic radius versus temperature ([5]; ratio of hydrodynamic radius of XCL and dioxane): no transition in the hydrodynamic radius is observed
temperature before which no modification of the 346 nm/330 nm Trp fluorescence ratio was observed (lectin remained tetrameric) [6]: < 50 °C
temperature beyond which the protein precipitates out (visual analysis after heating) ([6]; precipitates in tetrameric form): > 45 °C
